# Assay results as given in paper PMC5300155, “Biochemical and biophysical investigations of the interaction between human glucokinase and pro-apoptotic BAD” (PLoS ONE, 2017).
# B1: BAD-GST: recombinant human BAD with N-terminal hexahistidine tag and C-terminal GST fusion, TEV consensus sequence between (protein)
# chain: MFQIPEFEPSEQEDSSSAERGLGPSPAGDGPSGSGKHHRQAPGLLWDASHQQEQPTSSSHHGGAGAVEIRSRHSSYPAGTEDDEGMGEEPSPFRGRSRSAPPNLWAAQRYGRELRRMSDEFVDSFKKGLPRPKSAGTATQMRQSSSWTRVFQSWWDRNLGRGSSAPSQ
# modifications: left off: His6, N-terminal, state not stated | GST, C-terminal, kept
# Columns and labels:
# human pancreatic GCK = molecular target: T1, human pancreatic GCK (Homo sapiens, UniProt P35557); assay: GCK activity, G6PDH-linked assay (lab's routine assay, 25°C); format: biochemical
# T1 construct: hexahistidine (N); made in house; host or cells: glucokinase auxotroph BM5340(DE3)
# T1 sequence (P35557 1-465): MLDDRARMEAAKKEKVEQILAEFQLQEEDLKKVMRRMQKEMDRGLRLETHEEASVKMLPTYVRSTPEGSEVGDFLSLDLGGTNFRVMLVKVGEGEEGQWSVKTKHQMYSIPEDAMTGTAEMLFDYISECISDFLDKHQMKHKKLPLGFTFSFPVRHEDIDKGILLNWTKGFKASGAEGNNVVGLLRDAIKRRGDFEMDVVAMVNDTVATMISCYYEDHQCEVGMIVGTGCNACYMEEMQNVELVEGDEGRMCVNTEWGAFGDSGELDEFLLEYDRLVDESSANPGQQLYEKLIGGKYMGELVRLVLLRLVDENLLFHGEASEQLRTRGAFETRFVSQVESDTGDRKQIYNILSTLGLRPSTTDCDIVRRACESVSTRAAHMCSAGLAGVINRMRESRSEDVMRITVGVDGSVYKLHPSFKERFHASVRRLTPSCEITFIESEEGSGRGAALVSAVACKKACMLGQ
# Method: Recombinant human pancreatic GCK containing an N-terminal hexahistidine tag was produced in the glucokinase auxotroph BM5340(DE3) and purified using a previously described procedure. TEV protease was expressed as a GST-fusion protein from a pGEX plasmid encoding the S219V variant, provided by David Waugh (Addgene plasmid 8827). Expression was induced with IPTG (1 mM) for 4 h at 30°C. Cell pellets were resuspended in Tris buffer (50 mM, pH 8.0) containing NaCl (100 mM), glycerol (10% v/v), benzamidine (1 mM) and dithiothreitol (10 mM) and lysed via French Press. Polyethyleneimine (0.1%) was added to the lysate and protein was purified on a glutathione-affinity column (GSTrap, GE Sciences). TEV protease was flash frozen and stored at -80°C for up to 1 month.
# GCK activity was assayed using a glucose 6-phosphate dehydrogenase (G6PDH)-linked assay at 25°C. 50 nM GCK was assayed in buffer containing HEPES (100 mM, pH 7.4), KCl (50 mM), NADP^+ (0.5 mM), DTT (10 mM), MgCl2 (7 mM), G6PDH (1.5 U) and glucose (0–100 mM) in a total volume of […]. Addition of ATP (6 mM) initiated the reaction. Production of NADPH was measured at 340 nm. To determine the effect of BAD on GCK activity, 5 μL of BAD or buffer control was added to the reaction in a final volume of 100 μL. K0.5 values were determined by fitting to the Hill equation. The effect of BAD on GCK activity is reported as the percent rate increase at individual glucose concentrations, calculated as the average of a minimum of four rates of BAD-containing assays divided by the average of rates of BAD buffer-containing assays. The results represent the average of at least three independent preparations of pure BAD.
# Bcl-xL [1] = molecular target: T2, Bcl-xL (Homo sapiens, UniProt Q07817, DEL45-84); assay: Fluorescence polarization competition with f-BH3 for binding to Bcl-xL
# T2 construct: made in house
# T2 sequence (Q07817 with tags, fused parts or gaps DEL45-84): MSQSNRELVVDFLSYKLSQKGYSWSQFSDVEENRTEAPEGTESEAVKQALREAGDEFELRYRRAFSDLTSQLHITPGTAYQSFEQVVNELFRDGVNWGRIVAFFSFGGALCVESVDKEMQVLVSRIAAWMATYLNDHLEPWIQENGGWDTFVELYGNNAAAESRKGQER
# Method: Exon 1 of human bcl-xl lacking the C-terminal residues 189–233 was obtained from Stanley Korsmeyer (Addgene plasmid 8755) and site-directed mutagenesis was performed to create the Δ45–84, Δ210–233 variant. Bcl-xL was expressed and purified using a modified procedure described previously. Briefly, Bcl-xL was purified by nickel affinity chromatography and dialyzed against potassium phosphate buffer (20 mM, pH 7.4) containing NaCl (50 mM), EDTA (1 mM), and DTT (10 mM). Protein was applied to a Superdex 200 10/30 HR size-exclusion column, at a flow rate of 0.02 mL/min, to remove aggregate and oligomers prior to binding assays.
# A fluorescence polarization assay developed by Zhang, et al. was utilized to measure interactions between BAD and its binding partners. Two 21-residue FITC-labeled peptides containing the BH3 domain of BAD were synthesized and purified to >95% by Peptide2.0 (f-BH3 = NLWAAQRYGRELRRMSDK(FITC)FVD; f-pBH3 = NLWAAQRYGRELRRM(p)SDK(FITC) FVD). Polarization was measured at room temperature with an excitation wavelength of 485 nm and an emission wavelength of 530 nm using a SpectraMax M5 microplate reader (Molecular Devices). Experiments to measure binding constants of the fluorescent peptides to Bcl-xL or GCK were performed in black 96-well plates. Each well contained 15 nM peptide, 60 μL BAD buffer (0.1 M Tris, 0.1 M KCl, 0.5 M arginine, 2.5 mM CHAPS, 5 mM TCEP, 10% glycerol, pH 8.5) and variable concentrations of Bcl-xL (0–2.25 μM) or GCK (0–400 μM) in assay buffer (20 mM phosphate buffer, pH 7.4, 1 mM EDTA, 50 mM NaCl, 10 mM DTT) in a final volume of 120 μL. High GCK concentrations were chosen in an effort to detect a signal indicating a binding event. Assays containing GCK also contained 250 mM glucose. […] Plates were incubated at room temperature in the dark for 15 min prior to polarization measurements.
# [2] = produced in Escherichia coli; ref [30]; cited from earlier work
# Excerpt: To facilitate biochemical characterization of the BAD:GCK complex, we sought a method to produce functional, recombinant human BAD. Several groups have used microbial hosts to produce BAD, however, functional characterization of the resulting protein was limited.
# Bcl-xL [3] = molecular target: T2, Bcl-xL; assay: Analytical ultracentrifugation sedimentation velocity of 1:1 mixture BAD-GST and Bcl-xL; format: binding; details: 1:1 mixture of BAD-GST and Bcl-xL, 20°C, 50,000 x g, BAD buffer pH 8.5
# Method: Sedimentation velocity experiments were conducted with an Optima XLI Ultracentrifuge (Beckman Coulter) using a four-hole rotor with three 420 μL samples in standard double-sector Epon centerpieces equipped with sapphire windows. Absorbance and interference data were collected simultaneously. Size-exclusion purified proteins were concentrated to OD280 nm = 0.3–1.0 prior to centrifugation. For complex formation, proteins were mixed in a 1:1 molar ratio in BAD buffer (0.1 M Tris, 0.1 M KCl, 0.5 M arginine, 2.5 mM CHAPS, 5 mM TCEP, 10% glycerol, pH 8.5) and incubated on ice 30 min prior to the start of the experiment. Experiments were carried out at 20°C and 50,000 x g. Data were analyzed with Ultrascan III software using a minimum of 70 scans per sample for analysis. Van Holde-Weischet analysis was performed to obtain S20,W values.
Molecule,"Hill coefficient H of GCK in presence of pBH3 (human pancreatic GCK; Fig 6B, GCK alone: H = 1.4)","K0.5 (glucose) of GCK in presence of pBH3 (human pancreatic GCK; Fig 6B, GCK alone: K0.5 = 4.6 mM, Hill equation fit)","kcat of GCK in presence of pBH3 (human pancreatic GCK; Fig 6B, GCK alone: kcat = 33.2 s^-1)","Change in GCK activity, peptide up to 50 μM (human pancreatic GCK; peptide concentrations up to 50 μM)","Effect on kcat, K0.5 or Hill coefficient of GCK (peptide) (human pancreatic GCK; peptide up to 5 μM)",Ability to interact with Bcl-xL (in words) (Bcl-xL [1]; ITC and fluorescence polarization assays),Proteolysis of recombinant BAD [2],"Increase in GCK rate (human pancreatic GCK; 0.8 mM glucose, BAD-GST ≥ 2 μM, average of at least three independent BAD preparations)","Effect on kcat, K0.5 or Hill coefficient of GCK (BAD-GST) (human pancreatic GCK; BAD-GST 8 μM, variable glucose)",Stimulation of GCK activity (in words) (human pancreatic GCK; glucose 0.5–1.0 mM),"Increase in GCK activity (abstract) (human pancreatic GCK; high concentrations of recombinant BAD, glucose well below K0.5)","IC50 (Bcl-xL [1]; 200 nM f-BH3, 50 nM Bcl-xL, competitor 0–50 μM, room temperature, 15 min)",Sedimentation coefficient (Bcl-xL [3])
"NLWAAQRYGRELRRM(p)SDKFVD [pBH3, 21-residue phosphorylated peptide containing the BH3 domain of BAD]",1.5,3.7 mM,31.4 s^-1,no change in GCK activity,"does not impact the kcat, K0.5 or Hill coefficient of human GCK",significantly impaired in their ability to interact with Bcl-xL,–,–,–,–,–,–,–
B1,–,–,–,–,–,–,highly susceptible to proteolysis,10%,"does not alter the kcat, K0.5 or Hill coefficient of GCK","small, but statistically significant extent",< 15%,130 nM,2.1
